B1: FLAG-tagged KIR2DL3, full-length, wild type, on 293T cells [human] / HLA-C*03:04-GL9 tetramer (phycoerythrin-conjugated) [modified: biotin (enzymatically, with biotin ligase)] [human] (parent)
chain 1: HEGVHRKPSLLAHPGPLVKSEETVILQCWSDVRFQHFLLHREGKFKDTLHLIGEHHDGVSKANFSIGPMMQDLAGTYRCYGSVTHSPYQLSAPSDPLDIVITGLYEKPSLSAQPGPTVLAGESVTLSCSSRSSYDMYHLSREGEAHERRFSAGPKVNGTFQADFPLGPATHGGTYRCFGSFRDSPYEWSNSSDPLLVSVTGNPSNSWPSPTEPSSETGNPRHLHVLIGTSVVIILFILLLFFLLHRWCCNKKNAVVMDQEPAGNRTVNREDSDEQDPQEVTYAQLNHCVFTQRKITRPSQRPKTPPTDIIVYTELPNAEP
chain 2: not shown
chain 3: not shown
chain 4: GAVDPLLAL
B2: FLAG-tagged KIR2DL3, full-length, wild type, on 293T cells [human] / HLA-C*07:02-RL9 tetramer (phycoerythrin-conjugated) [modified: biotin (enzymatically, with biotin ligase)] [human | not stated] (parent)
chain 1: B1 chain 1
chain 2: not shown
chain 3: not shown
chain 4: RYRPGTVAL
B3: FLAG-tagged KIR2DL2, full-length, wild type, on 293T cells [human] / HLA-C*03:04-GL9 tetramer (phycoerythrin-conjugated) [modified: biotin (enzymatically, with biotin ligase)] [human] (parent)
chain 1: HEGVHRKPSLLAHPGRLVKSEETVILQCWSDVRFEHFLLHREGKFKDTLHLIGEHHDGVSKANFSIGPMMQDLAGTYRCYGSVTHSPYQLSAPSDPLDIVITGLYEKPSLSAQPGPTVLAGESVTLSCSSRSSYDMYHLSREGEAHECRFSAGPKVNGTFQADFPLGPATHGGTYRCFGSFRDSPYEWSNSSDPLLVSVIGNPSNSWPSPTEPSSKTGNPRHLHILIGTSVVIILFILLFFLLHRWCSNKKNAAVMDQESAGNRTANSEDSDEQDPQEVTYTQLNHCVFTQRKITRPSQRPKTPPTDIIVYAELPNAESRSKVVSCP
chain 2: not shown
chain 3: not shown
chain 4: GAVDPLLAL
B4: FLAG-tagged KIR2DL2, full-length, wild type, on 293T cells [human] / HLA-C*07:02-RL9 tetramer (phycoerythrin-conjugated) [modified: biotin (enzymatically, with biotin ligase)] [human | not stated] (parent)
chain 1: B3 chain 1
chain 2: not shown
chain 3: not shown
chain 4: RYRPGTVAL

Variants of: B1
Assay: flow cytometry, HLA tetramer staining of transfected 293T cells
Settings: with HLA-C*03:04-GL9 tetramer (phycoerythrin-conjugated) [modified: biotin (enzymatically, with biotin ligase)] [human]; percentage tetramer+ normalised to percentage FLAG+; read off a plot

Variant	ratio to parent
chain 1 F181A	0.07

Variants of: B2
Assay: as above
Settings: with HLA-C*07:02-RL9 tetramer (phycoerythrin-conjugated) [modified: biotin (enzymatically, with biotin ligase)] [human | not stated]; percentage tetramer+ normalised to percentage FLAG+; read off a plot

Variant	ratio to parent
chain 1 F181A	0.06

Variants of: B3
Assay: as above
Settings: with HLA-C*03:04-GL9 tetramer (phycoerythrin-conjugated) [modified: biotin (enzymatically, with biotin ligase)] [human]; percentage tetramer+ normalised to percentage FLAG+; read off a plot

Variant	ratio to parent
chain 1 F181A	0.05

Variants of: B4
Assay: as above
Settings: with HLA-C*07:02-RL9 tetramer (phycoerythrin-conjugated) [modified: biotin (enzymatically, with biotin ligase)] [human | not stated]; percentage tetramer+ normalised to percentage FLAG+; read off a plot

Variant	ratio to parent
chain 1 F181A	0.02

Reference: PMC8041999
